Reference: article PMC6151538 (2017)

T1: fetuin (Bos taurus, UniProt P12763)
T1 chain: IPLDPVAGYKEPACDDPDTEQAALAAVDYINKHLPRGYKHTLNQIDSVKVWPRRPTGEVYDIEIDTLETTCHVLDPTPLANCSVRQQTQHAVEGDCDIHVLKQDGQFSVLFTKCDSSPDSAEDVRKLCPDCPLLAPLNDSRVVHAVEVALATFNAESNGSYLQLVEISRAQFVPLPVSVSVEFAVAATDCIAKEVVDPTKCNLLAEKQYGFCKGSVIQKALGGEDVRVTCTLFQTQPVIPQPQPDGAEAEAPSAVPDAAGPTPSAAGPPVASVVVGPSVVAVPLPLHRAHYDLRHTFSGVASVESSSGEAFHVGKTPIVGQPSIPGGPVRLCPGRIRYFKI

T2: asialofetuin (Bos taurus, UniProt P12763)
T2 chain: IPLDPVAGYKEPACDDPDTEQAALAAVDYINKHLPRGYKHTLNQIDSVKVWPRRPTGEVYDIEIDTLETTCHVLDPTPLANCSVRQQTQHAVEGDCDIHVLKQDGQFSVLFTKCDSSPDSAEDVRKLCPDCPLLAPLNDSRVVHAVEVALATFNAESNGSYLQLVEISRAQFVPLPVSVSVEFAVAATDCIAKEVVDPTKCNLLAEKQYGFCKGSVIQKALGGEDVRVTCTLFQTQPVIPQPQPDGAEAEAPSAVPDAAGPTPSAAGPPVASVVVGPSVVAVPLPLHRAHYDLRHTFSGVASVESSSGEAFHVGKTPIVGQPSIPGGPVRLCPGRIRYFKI


Experiments:
[1] = biological target: T1, fetuin; assay: solid-phase assay, Scatchard analysis
[2] = biological target: T2, asialofetuin; assay: solid-phase assay, Scatchard analysis

Row | Binder | Kd [1] | Kd [2]
1 | Gal-8 (NN) N-terminal CRD tandem homodimer (NN, no linker) (protein, engineered linker-free tandem of two Gal-8N CRDs, biotinylated; fetuin with sialylated N-glycans) MMLSLNNLQNIIYNPVIPFVGTIPDQLDPGTLIVIRGHVPSDADRFQVDLQNGSSMKPRADVAFHFNPRFKRAGCIVCNTLINEKWGREEITYDTPFKREKSFEIVIMVLKDKFQVAVNGKHTLLYGHRIGPEKIDTLGIYGKVNIHSIGFSFSS | 93 nM | –
2 | Gal-8 (NN) N-terminal CRD tandem homodimer (NN, no linker) (protein, engineered linker-free tandem of two Gal-8N CRDs, biotinylated; fetuin chemically desialylated (N-glycans)) MMLSLNNLQNIIYNPVIPFVGTIPDQLDPGTLIVIRGHVPSDADRFQVDLQNGSSMKPRADVAFHFNPRFKRAGCIVCNTLINEKWGREEITYDTPFKREKSFEIVIMVLKDKFQVAVNGKHTLLYGHRIGPEKIDTLGIYGKVNIHSIGFSFSS | – | 148 nM
